In patent US20230357354A1, “CD38-BINDING CD31 PEPTIDES AND USES THEREOF” (ENCEFA, priority 2020, published 2023) one finds Value (Pepscan ELISA signal) and EC50, prevention of MPP^+-induced DA cell loss in rat midbrain cultures data, which are given here for 2 substances.

For assay [1], the target named is recombinant His-tagged CD38 (human) (UniProt P28907). In words: Pepscan ELISA, LOOP7 array; His-tagged CD38 in solution, anti-His HRP. (In general: ELISA stands for enzyme-linked immunosorbent assay.)
For assay [2], the target named is CD38 on cells of rat midbrain cultures (rat (cultures from Wistar rat embryos)) (UniProt Q64244). The assay is described as follows: cell-based or functional assay.
Chain of CD38 on cells of rat midbrain cultures (rat (cultures from Wistar rat embryos)) (Q64244 whole entry): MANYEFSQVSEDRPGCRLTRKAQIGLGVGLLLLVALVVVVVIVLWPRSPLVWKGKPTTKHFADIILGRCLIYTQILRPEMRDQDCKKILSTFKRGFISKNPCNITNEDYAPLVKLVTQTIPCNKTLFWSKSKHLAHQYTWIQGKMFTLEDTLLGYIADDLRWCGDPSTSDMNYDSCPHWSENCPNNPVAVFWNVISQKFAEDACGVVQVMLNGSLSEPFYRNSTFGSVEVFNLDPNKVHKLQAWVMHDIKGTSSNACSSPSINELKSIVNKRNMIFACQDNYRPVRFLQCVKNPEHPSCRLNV

Regarding CD31 peptide CEYOVLVEC (LOOP7), in assay [1], the Value (Pepscan ELISA signal) is 651 mAU.

In assay [2], “murine sCD31 (SEQ ID NO: 18) (from UniProt Q08481 18-585) (ligand)” yielded an EC50, prevention of MPP^+-induced DA cell loss in rat midbrain cultures of 0.036 mg/L.
